Reference: patent US9199234

Legend:
Luteinizing Hormone (LH) [1] = target: Luteinizing Hormone (LH) (UniProt P01215); test: i-STAT sandwich, 0.4 mIU/L TSH spiked with LH, signal increase over TSH alone; capture: row antibody; detection conjugate: 5409
[2] = target: Thyroid Stimulating Hormone (TSH) (UniProt P01215); test: FRET competition on Alexa-488-labelled antigen (taken as TSH); excess unlabelled antibody first; competitor: BHQ-labelled 5409
[3] = target: Thyroid Stimulating Hormone (TSH) (UniProt P01215); test: FRET competition on Alexa-488-labelled antigen (taken as TSH); excess unlabelled antibody first; competitor: BHQ-labelled T25C
[4] = target: Follicle Stimulating Hormone (FSH) (UniProt P01215); test: i-STAT sandwich, 0.4 mIU/L TSH spiked with FSH, signal increase over TSH alone; capture: row antibody; detection conjugate: 5409
[5] = target: Thyroid Stimulating Hormone (TSH) (UniProt P01215); test: FRET competition on Alexa-488-labelled antigen (taken as TSH); excess unlabelled antibody first; competitor: BHQ-labelled M4
[6] = target: Thyroid Stimulating Hormone (TSH) (UniProt P01215); test: i-STAT sandwich immunoassay, recombinant TSH; row antibody on capture beads; detection ALP conjugate: TSH Ab 544
[7] = target: Thyroid Stimulating Hormone (TSH) (UniProt P01215); test: FRET competition on Alexa-488-labelled antigen (taken as TSH); excess unlabelled antibody first; competitor: BHQ-labelled TSH Ab 544
[8] = target: Thyroid Stimulating Hormone (TSH) (UniProt P01215); test: i-STAT sandwich immunoassay, recombinant TSH; row antibody on capture beads; detection ALP conjugate: M4
[9] = target: Chorionic Gonadotropin (CG) (UniProt P01215); test: i-STAT sandwich, 0.4 mIU/L TSH spiked with CG, signal increase over TSH alone; capture: row antibody; detection conjugate: 5409
[10] = target: Thyroid Stimulating Hormone (TSH) (UniProt P01215); test: FRET competition on Alexa-488-labelled antigen (taken as TSH); excess unlabelled antibody first; competitor: BHQ-labelled 414B
[11] = target: Chorionic Gonadotropin (CG) (UniProt P01215); test: FRET quenching titration in solution: BHQ-10-labelled antibody, Alexa-Fluor 488-labelled antigen
Luteinizing Hormone (LH) [12] = target: Luteinizing Hormone (LH) (UniProt P01215); test: as above
[13] = target: Thyroid Stimulating Hormone (TSH) (UniProt P01215); test: as above
[14] = target: Follicle Stimulating Hormone (FSH) (UniProt P01215); test: as above
[15] = target: Thyroid Stimulating Hormone (TSH) (UniProt P01215); test: i-STAT sandwich immunoassay, recombinant TSH; row antibody on capture beads; detection ALP conjugate: T25C
[16] = target: Thyroid Stimulating Hormone (TSH) (UniProt P01215); test: FRET competition on Alexa-488-labelled antigen (taken as TSH); excess unlabelled antibody first; competitor: BHQ-labelled ME130
[17] = target: Thyroid Stimulating Hormone (TSH) (UniProt P01215); test: i-STAT sandwich immunoassay, recombinant TSH; row antibody on capture beads; detection ALP conjugate: 5409
[18] = target: Thyroid Stimulating Hormone (TSH) (UniProt P01215); test: i-STAT sandwich immunoassay, recombinant TSH; row antibody on capture beads; detection ALP conjugate: 414B
[19] = target: Follicle Stimulating Hormone (FSH) (UniProt P01215); test: i-STAT sandwich, 0.4 mIU/L TSH spiked with FSH, signal increase over TSH alone; capture: row antibody; detection conjugate: 414B
Luteinizing Hormone (LH) [20] = target: Luteinizing Hormone (LH) (UniProt P01215); test: i-STAT sandwich, 0.4 mIU/L TSH spiked with LH, signal increase over TSH alone; capture: row antibody; detection conjugate: 414B
[21] = target: Thyroid Stimulating Hormone (TSH) (UniProt P01215); test: i-STAT sandwich immunoassay, recombinant TSH; row antibody on capture beads; detection ALP conjugate: ME130
[22] = target: Chorionic Gonadotropin (CG) (UniProt P01215); test: i-STAT sandwich, 0.4 mIU/L TSH spiked with CG, signal increase over TSH alone; capture: row antibody; detection conjugate: 414B
[23] = target: Chorionic Gonadotropin (CG) (UniProt P01215); test: i-STAT sandwich, 0.4 mIU/L TSH spiked with CG, signal increase over TSH alone; capture: row antibody; detection conjugate: TSH Ab 544
[24] = target: Follicle Stimulating Hormone (FSH) (UniProt P01215); test: i-STAT sandwich, 0.4 mIU/L TSH spiked with FSH, signal increase over TSH alone; capture: row antibody; detection conjugate: TSH Ab 544
Luteinizing Hormone (LH) [25] = target: Luteinizing Hormone (LH) (UniProt P01215); test: i-STAT sandwich, 0.4 mIU/L TSH spiked with LH, signal increase over TSH alone; capture: row antibody; detection conjugate: TSH Ab 544
Luteinizing Hormone (LH) [26] = target: Luteinizing Hormone (LH) (UniProt P01215); test: i-STAT LH-detecting cartridge (LH 5304 capture beads, 414B conjugate); polystyrene LH 5304 scavenger beads in the sample; signal without beads = 100%
[27] = target: Follicle Stimulating Hormone (FSH) (UniProt P01215); test: i-STAT sandwich, 0.4 mIU/L TSH spiked with FSH, signal increase over TSH alone; capture: row antibody; detection conjugate: ME130
[28] = target: Follicle Stimulating Hormone (FSH) (UniProt P01215); test: i-STAT sandwich, 0.4 mIU/L TSH spiked with FSH, signal increase over TSH alone; capture: row antibody; detection conjugate: T25C
[29] = target: Chorionic Gonadotropin (CG) (UniProt P01215); test: i-STAT sandwich, 0.4 mIU/L TSH spiked with CG, signal increase over TSH alone; capture: row antibody; detection conjugate: T25C
Luteinizing Hormone (LH) [30] = target: Luteinizing Hormone (LH) (UniProt P01215); test: i-STAT sandwich, 0.4 mIU/L TSH spiked with LH, signal increase over TSH alone; capture: row antibody; detection conjugate: T25C
Luteinizing Hormone (LH) [31] = target: Luteinizing Hormone (LH) (UniProt P01215); test: i-STAT sandwich, 0.4 mIU/L TSH spiked with LH, signal increase over TSH alone; capture: row antibody; detection conjugate: ME130
[32] = target: Chorionic Gonadotropin (CG) (UniProt P01215); test: i-STAT sandwich, 0.4 mIU/L TSH spiked with CG, signal increase over TSH alone; capture: row antibody; detection conjugate: ME130

Row | Substance | LH CR (%) (Luteinizing Hormone (LH) [1]) | relative fluorescence [2] | relative fluorescence [3] | FSH CR (%) [4] [%] | relative fluorescence [5] | electrochemical current of sandwich immunoassay [6] [nA] | relative fluorescence [7] | electrochemical current of sandwich immunoassay [8] [nA] | CG CR (%) [9] [%] | relative fluorescence [10] | Kd [11] [nM] | Kd (Luteinizing Hormone (LH) [12]) [nM] | Kd [13] [nM] | Kd [14] [nM] | electrochemical current of sandwich immunoassay [15] [nA] | relative fluorescence [16] | electrochemical current of sandwich immunoassay [17] [nA] | electrochemical current of sandwich immunoassay [21] [nA] | also measured
1 | AbCAM ME-130 mouse monoclonal antibody | 11.1 | 0.82 | 0.88 | 3.9 | 0.77 | 10.8 | 0.82 | 50.5 | 11.8 | 0.99 | 45 | 54 | 0.04 | 70 | -0.1 | 1 | 54.7 |  | 
2 | TSH Antibody 544 (Abbott Diagnostics Division) |  | 0.96 | 0.71 |  | 0.92 |  | 1 | 0.11 |  | 0.89 | 210 | 1000 | 1.31 | 1000 | 22.4 | 0.72 | 7.98 | 34.9 | electrochemical current of sandwich immunoassay [18]: 25 nA; FSH CR (%) [19]: 7.15%; LH CR (%) (Luteinizing Hormone (LH) [20]): 11.8%; CG CR (%) [22]: 117%
3 | Seradyn anti-alpha-LH monoclonal antibody (Seradyn, Cat#MIT0414B) | 348 | 0.81 | 0.76 | 260 | 0.75 | 10.2 | 0.83 | 41.3 | 84.6 | 1 | 0.05 | 0.05 | 0.04 | 0.1 |  | 0.86 | 40.3 |  | CG CR (%) [23]: 39.2%; FSH CR (%) [24]: 219%; LH CR (%) (Luteinizing Hormone (LH) [25]): 467%
4 | Biospacific LH 5304 monoclonal antibody (mus beta-LH, Catalog #5304 SP-5) |  |  |  |  |  |  |  |  |  |  |  |  |  |  |  |  |  |  | signal remaining after scavenger beads (%) (Luteinizing Hormone (LH) [26]): 4%

More lines, main results first:

Row | LH CR (%) (Luteinizing Hormone (LH) [1]) | relative fluorescence [2] | relative fluorescence [3] | FSH CR (%) [4] [%] | relative fluorescence [5] | electrochemical current of sandwich immunoassay [6] [nA] | relative fluorescence [7] | electrochemical current of sandwich immunoassay [8] [nA] | CG CR (%) [9] [%] | relative fluorescence [10] | Kd [11] [nM] | Kd (Luteinizing Hormone (LH) [12]) [nM] | Kd [13] [nM] | Kd [14] [nM] | electrochemical current of sandwich immunoassay [15] [nA] | relative fluorescence [16] | electrochemical current of sandwich immunoassay [17] [nA] | electrochemical current of sandwich immunoassay [21] [nA] | Substance | also measured
5 |  | 1 | 0.78 |  | 0.9 | 1.41 | 0.93 | 15.2 |  | 0.88 | 500 | 1000 | 0.1 | 1000 | 34.6 | 0.78 |  | 53.6 | TSH capture mouse monoclonal antibody Biospacific Cat#5409 SPTNE-5 | FSH CR (%) [27]: 2.43%; FSH CR (%) [28]: 0.65%; CG CR (%) [29]: 0.96%; LH CR (%) (Luteinizing Hormone (LH) [30]): 3.76%; LH CR (%) (Luteinizing Hormone (LH) [31]): 10.1%; CG CR (%) [32]: 0.78%
6 |  | 0.94 | 0.74 |  | 1 | 0 | 0.98 |  |  | 0.9 | 554 | 300 | 0.18 | 210 | 22.5 | 0.76 | 20.7 | 39.9 | Fitzgerald 10C-CR2151M4 mouse monoclonal antibody | 
7 | 9.89 | 0.95 | 1 | 6.25 | 0.92 | 0.83 | 0.97 | 40.9 | 13.7 | 0.97 | 40 | 35 | 0.08 | 300 |  | 0.97 | 49.7 | 0.68 | signaling mouse monoclonal antibody Fitzgerald Cat#10-T25C | electrochemical current of sandwich immunoassay [18]: 0.82 nA
